Consider 4 molecules from paper PMC11993666 (Nature Communications, 2025).

Assay [1] deals with hCD40 (as used in SPR) (human) (UniProt P25942). As to the kind of experiment: SPR.
Assay [2] has as its target hCD40 expressed on Jurkat cells (human, UniProt P25942). As to the kind of experiment: cell-based or functional assay.

hCD40 expressed on Jurkat cells, sequence (P25942 21-277): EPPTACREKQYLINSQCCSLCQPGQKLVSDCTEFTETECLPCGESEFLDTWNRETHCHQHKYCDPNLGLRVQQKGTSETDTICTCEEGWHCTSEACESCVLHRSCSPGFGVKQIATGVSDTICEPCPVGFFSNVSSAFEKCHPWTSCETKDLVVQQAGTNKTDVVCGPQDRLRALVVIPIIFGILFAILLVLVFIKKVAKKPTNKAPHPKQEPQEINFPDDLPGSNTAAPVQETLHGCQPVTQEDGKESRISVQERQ
hCD40 (as used in SPR) (human), sequence (P25942 21-277): as above

For “ChiLob7/4 hIgG2 wild type (from UniProt P01859)”, in assay [1], the equilibrium dissociation constant (Kd) worked out at 1.97 nM and the koff was 0.000164 s⁻¹.

B1: ChiLob7/4 hIgG2 C232S κC214S (cross-over) (antibody, V domains shown)
VH: EVQLQQSGPDLVKPGASVKISCKTSGYTFTEYIMHWVKQSHGKSLEWIGGIIPNNGGTSYNQKFKDKATMTVDKSSSTGYMELRSLTSEDSAVYYCTRREVYGRNYYALDYWGQGTLVTVSS
VL: DIQMTQTTSSLSASLGDRVTITCSASQGINNYLNWYQQKPDGTVKLLIYYTSSLHSGVPSRFSGSGSGTDYSLTISNLEPEDIATYYCQQYSNLPYTFGGGTKLEIK
B1: the “EC50 of NF-κB activation (percentage of GFP+ cells, flow cytometry, 24 h) in NF-κB/Jurkat/GFP reporter cells expressing hCD40” value in assay [2] was 4.59 ng/mL.

B2: ChiLob7/4 hIgG2 C232S + K228C κC214S (cross-over + K228C) (antibody, V domains shown)
VH: EVQLQQSGPDLVKPGASVKISCKTSGYTFTEYIMHWVKQSHGKSLEWIGGIIPNNGGTSYNQKFKDKATMTVDKSSSTGYMELRSLTSEDSAVYYCTRREVYGRNYYALDYWGQGTLVTVSS
VL: DIQMTQTTSSLSASLGDRVTITCSASQGINNYLNWYQQKPDGTVKLLIYYTSSLHSGVPSRFSGSGSGTDYSLTISNLEPEDIATYYCQQYSNLPYTFGGGTKLEIK
As for B2, the “EC50 of NF-κB activation (percentage of GFP+ cells, flow cytometry, 24 h) in NF-κB/Jurkat/GFP reporter cells expressing hCD40” value in assay [2] came to 1.55 ng/mL.

B3: ChiLob7/4 hIgG2 C232S + T222C κE123C + κC214S (cross-over + T222C κE123C) (antibody, V domains shown)
VH: EVQLQQSGPDLVKPGASVKISCKTSGYTFTEYIMHWVKQSHGKSLEWIGGIIPNNGGTSYNQKFKDKATMTVDKSSSTGYMELRSLTSEDSAVYYCTRREVYGRNYYALDYWGQGTLVTVSS
VL: DIQMTQTTSSLSASLGDRVTITCSASQGINNYLNWYQQKPDGTVKLLIYYTSSLHSGVPSRFSGSGSGTDYSLTISNLEPEDIATYYCQQYSNLPYTFGGGTKLEIK
On to B3, for which the “EC50 of NF-κB activation (percentage of GFP+ cells, flow cytometry, 24 h) in NF-κB/Jurkat/GFP reporter cells expressing hCD40” value in assay [2] worked out at 1.55 ng/mL.
